# Results reported in the RNAGym collection of RNA variant scans (doi:10.1073/pnas.2313332121).
# Fewer inactive variants are shown than the library holds.
# B1: TPR 5TU (parent)
# chain: GGAUCUUCUCGAUCUAACAAAAAAGACAAAUCUGCCACAAAGCUUGAGAGCAUCUUCGGAUGCAGAGGCGGCAGCCUUCGGUGGCGCGAUAGCGCCAACGUUCUCAACUAUGACACGCAAAACGCGUGCUCCGUUGAAUGGAGUUUAUCAUG
# Variants of: B1
# Assay: polymerase ribozyme fitness, log enrichment relative to wild type (log ratio); higher = more active; in vitro selection for triplet polymerase activity
# How it was run: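 Each subunit of a heterodimeric triplet polymerase ribozyme was represented by a PCR-built, transcribed mutant library that underwent triplicate single-round in vitro selection with frozen incubation at −7 °C. Extended constructs were recovered by gel excision, streptavidin-bead capture and RT-PCR, and Illumina sequencing of input and output libraries kept genotypes with ≥10 input reads and ≥1 read per output. Fitness is the logarithm of genotype enrichment relative to wild-type enrichment, from inverse-variance-weighted replicate averages, with a logarithm base of 2.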
row,Variant,polymerase ribozyme fitness (log ratio)
1,A24U G58C U104A G141U,-1.93
2,A24G U53A C95U,≤ -4.2
3,A24G C35A G58A C93G C99A,≤ -4.2
4,A24C A73C G86U C96A,≤ -4.2
5,A24U A49G A52C U53A U55A C69A,≤ -4.2
6,A24U A60G C85U A97C C129U,-0.602
7,A24C A37C C38U G59A C95A A107C C116U,≤ -4.2
8,A24U A47C G86A G94C C118U A137G,≤ -4.2
9,A24U G68C G81C G94A A98C U104C,≤ -4.2
10,A23U U53A C96A C114G G143A U146G,≤ -4.2
11,A24U A29C A73G G86U A89C G140U A150G,≤ -4.2
12,A23U A29C C51U G68U C72G G94C G136A A147C,≤ -4.2
13,A24G C125G,-3.52
14,A24U A40C A98U,0.235
15,A24U G50A C108G C125A G141C,≤ -4.2
16,A24U C35A C87A A91C A150G,≤ -4.2
17,A24C G34A C87A G126U,-4.18
18,A24C G86C G143A U148C,≤ -4.2
19,A23U G50C U139G,≤ -4.2
20,A24C G84A,≤ -4.2
21,A24U C27G G50C C54G A64C G84A G86C C118G C149U,≤ -4.2
22,A24U C35A A41C G88C,≤ -4.2
23,A24U U61A,-1.72
24,A23U U45C A66G C85U,≤ -4.2

row,Variant,polymerase ribozyme fitness (log ratio)
1,G25A A64G G88A,≤ -4.2
2,A23U U55A G128U,≤ -4.2
3,A24U G58A C79G A91U C118A G141C,≤ -4.2
4,A23U C43U G59C A60G G94C,≤ -4.2
5,A24C A73U C79U G88U G126A,≤ -4.2
6,A24U C38U,0.361
7,A24U U61A C93A C116G,-4.17
8,A24U G62U C96A G117A,-1.86
9,A24U U53A C57G A115U U151A,≤ -4.2
10,A24C U55A A73U G84U U102A A110U A119C,≤ -4.2
11,A23U A64C G67A G81C,≤ -4.2
12,A23U C38U G59C C95A U151G,≤ -4.2
13,A23U C85U U102A A107U U130G U135G A138C,≤ -4.2
14,A23U A30G G42U A52U U56A C72G C95G C114G U139A,≤ -4.2
15,A24U U45C U101G A106G,0.694
16,A24U A39U C96A C99G U130C C131G,≤ -4.2
17,A24C C51U C105G,≤ -4.2
18,A23U G84A,-3.32
19,A24U U53A U55A G68C C76A C85G,≤ -4.2
20,A23U A26U C27U A41U C93U C95A,≤ -4.2
21,A24C U45A C57U G84A,≤ -4.2
22,A24G A52G U55A C85U A150C,≤ -4.2
23,A23U U55A C57U G68U A73G G80C G94U U104C,≤ -4.2
24,A23U U77C C87U,≤ -4.2

row,Variant,polymerase ribozyme fitness (log ratio)
1,A24U A52U C85U,-1.43
2,A24C C54G C76U U78A C105A A147C,≤ -4.2
3,A24G U53A C96G A122G A142C,≤ -4.2
4,A24G G80C G83C A115U U134A,≤ -4.2
5,A24C C27G A29U C57U G86C C103A,≤ -4.2
6,A24U A30G A64G C87G A122U C125U C149U,≤ -4.2
7,A24C A30U A52G G58A G68A U82G C93U A98U G100C C125A G126U,≤ -4.2
8,A24C A49C A52C A64U C69A U82G C108U U130A U139G,≤ -4.2
9,A23U G42C C54U C76A C93A U127C G133C,≤ -4.2
10,A24U U45G G92C,-2.88
11,A24U C96U G117A G133A U145A,≤ -4.2
12,A23U G25C A52C U55A A122C,≤ -4.2
13,A24U A30C G140A,-3.94
14,A24U C76G A138G,≤ -4.2
15,A24U U31A A37U G143C,≤ -4.2
16,A23U G68C C76G G80C A89U U148G,≤ -4.2
17,A24U A26U U55C A91G,≤ -4.2
18,A24U A30U G59A U101C U102G A121U G126C A142C,≤ -4.2
19,A24C C85A G143C U146A,≤ -4.2
20,A24C A29G C51U C95G C96U C114A U146C,≤ -4.2
21,A23U G94A,-3.99
22,A24C C72A C103A U109G G126U,≤ -4.2
23,A24U G80U,-0.195
24,A24U G80C,-4.14

row,Variant,polymerase ribozyme fitness (log ratio)
1,A24G C85G,≤ -4.2
2,A24G C85A,-2.96
3,A23U A24C C51U U53A A98U,≤ -4.2
4,A24U A26G A64C G84U A97U A122C,≤ -4.2
5,A24U G25A A39G A60U G83C,≤ -4.2
6,A24U G42C G84A C93U G94C C99A A122G,≤ -4.2
7,A24G A37U A115G U130C U135A A150U,≤ -4.2
8,A24G A30G A47U A52C A60C C76A G100A C114A C118G G140A,≤ -4.2
9,A24U G94A,0.123
10,A23U A24C G25U G94C A119C C123A G141C,≤ -4.2
11,A24G C54U G67A G141A A150C,≤ -4.2
12,A23U A40G U77A G84A U146G,≤ -4.2
13,A24C C93U C114U A119G,≤ -4.2
14,A23U C54U G74U U78G,≤ -4.2
15,A24G C35U G48U A52U C125A,≤ -4.2
16,A23U C43U U61G G84U A89C C108G U145A,≤ -4.2
17,A24U A30C C93G C118A,≤ -4.2
18,A24G A29G G46U,≤ -4.2
19,A24G G25U U31C U55A C87G U102G,≤ -4.2
20,A24C G81U G83C A110U C114G,≤ -4.2
21,A23U U31C C87G U104G,≤ -4.2
22,A23U G50A C132U G140C,≤ -4.2
23,A24U A41C U45A G46C A49C G86A,-3.99
24,A24U A28C U33A G59A G140U U144G U146G,≤ -4.2

row,Variant,polymerase ribozyme fitness (log ratio)
1,A24U G46C A73G C87U G92C,-3.37
2,A23U C93U G126U,≤ -4.2
3,A24U G136U,-2.44
4,A23U G59U C93U,≤ -4.2
5,A24G A26U U56A C87G C123A C132G G133U,≤ -4.2
6,A23U C43G G48A G92A A98G A147U G152C,-3.84
7,G25A A26G A40G A47C C85A C116G A119C,≤ -4.2
8,A24C G74C U90G C99G U127A,≤ -4.2
9,A24U C35A A52U G84A G136A,≤ -4.2
10,A24G C87A,≤ -4.2
11,A24U C32G U135G G143A,-4.12
12,A24U A41G U53G G124C C131U,-1.4
13,A24U U53A G80A C85U A142C,≤ -4.2
14,A24C A30U C43A C57U C87G,≤ -4.2
15,A24G A30U U31C U101G,-3.98
16,A24G U31A C38G U53A C57A U77C G83A A137C,≤ -4.2
17,A24G A39G G67U G83A C85A U104G C105U G136A,≤ -4.2
18,A23U C76G,≤ -4.2
19,A24C U53A U55A A98U G126A C149G,≤ -4.2
20,A23U C87A G133A,≤ -4.2
21,A24C G65A G84C A97G G100U C108G G141C,≤ -4.2
22,A24U U31C G59C A66G A91U C114U,≤ -4.2
23,A23U A40G C87A G141U,≤ -4.2
24,A24U A39C G92U U144G U148G,≤ -4.2

row,Variant,polymerase ribozyme fitness (log ratio)
1,A24U A40C A49C C72G G83U C87G U139G U144C U151G,≤ -4.2
2,A24C U31A A52G,-3.62
3,A23U G74U U82G,≤ -4.2
4,A24U G34A G92C A137G,-4.07
5,A24G A30U G42U C72U A91G A120C,≤ -4.2
6,A24U A98U C99U U127G,-3.94
7,A24U U151A,≤ -4.2
8,A24U G80C G86U C125G A137C,≤ -4.2
9,A24G A26C A29C C79A C93U A115G G117A U144C A150C,≤ -4.2
10,A24U G59C,0.829
11,A24U A41U G86U,-3.62
12,A23U C85U A91G G126C G140U,≤ -4.2
13,A24G A49G C105U G117U,≤ -4.2
14,A24C G67C G92U C99U U109G A110U,≤ -4.2
15,A24U C93A G112A C114U C116G A119G,≤ -4.2
16,A24U C57U A89U G92C U127C C131G,≤ -4.2
17,A24U U31G A52C G65A G84C C87U A119G,≤ -4.2
18,A23U C54A G83U U102G,≤ -4.2
19,A24G G59C,-3.7
20,A23U A52G C85U A89G A106G G141U U148G,≤ -4.2
21,A24G A73G G86A G141U U145A A150U,≤ -4.2
22,A23U G88U C116U G140U G143U U146G,≤ -4.2
23,A24U G58C G88A C93U A121G,≤ -4.2
24,A24U C93U A142C,-2.21

row,Variant,polymerase ribozyme fitness (log ratio)
1,A23U G42C C75U U82G G84U C96A,≤ -4.2
2,A24G C99U,-3.56
3,A24U G80U C123G U146G,-1.39
4,A24C A30U A138U U144G,≤ -4.2
5,A24G G34A G58C C87A C99U,≤ -4.2
6,A24C C27G G94A A106G C108U,-3.93
7,A23U C38U,-4.06
8,A24G C54U C95U A97C A119U C125U,≤ -4.2
9,A23U G48C C54A C75G G80C C96U G140A,≤ -4.2
10,A24U A52G,0.771
11,A24U G140A,-4.12
12,A24G A29C A37G G46U C57U C76U A122U A138G U144G U151C,≤ -4.2
13,A24G U55G,-3.78
14,A24G C54A A106G,≤ -4.2
15,A23U C93A,≤ -4.2
16,A24U U55G,0.467
17,A24U U55A,-0.466
18,A24C C32G C43G C87G U104G A115C,≤ -4.2
19,A23U C35G A73U G81A U109G,≤ -4.2
20,A24C A29C A37U G59A U61G C87A C103G G117U,≤ -4.2
21,A24U C51U G59C G83A G84U C131U,-3.74
22,A24U A26C C27G C36G G81A A98G G136U U139G A142C,≤ -4.2
23,A24U U135C,-2.21
